Substitutions are numbered along the chain they refer to. Names may count otherwise.

Test [1] deals with T1, Human CLEC12A-His (recombinant, K244 WT) (human, UniProt Q5QGZ9 65-265).
T1 construct: Made in house (Dragonfly Tx); also called hCLEC12A; hCLEC12A-His; not shown: His tag
T1 sequence: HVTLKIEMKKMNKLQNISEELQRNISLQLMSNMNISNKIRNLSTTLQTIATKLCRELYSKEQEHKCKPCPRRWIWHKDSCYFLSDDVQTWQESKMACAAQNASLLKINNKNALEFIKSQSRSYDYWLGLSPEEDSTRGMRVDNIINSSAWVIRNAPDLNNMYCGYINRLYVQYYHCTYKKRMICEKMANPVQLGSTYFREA
In words: SPR, two-state fit (kd1). In general terms: In SPR one partner is held on a chip, and binding of the other changes the refractive index at the surface.

A further test has as its target T2, Human CLEC12A-K244Q-His (human, UniProt Q5QGZ9 65-265).
T2 construct: also called hCLEC12A (Q244); CLEC12A (Q244); not shown: His tag
T2 chain: T1 sequence with K180Q
Description: SPR, two-state fit (kd1).

Test [2] concerns the target T1, Human CLEC12A-His (recombinant, K244 WT). Description: SPR 37C, two-state fit, average.
Test [3] addresses T3, mFc-hNKG2D (recombinant mFc-tagged human NKG2D dimer) (human, UniProt P26718 73-216).
T3 construct: extracellular domain; Made in house; not shown: mouse Fc tag
T3 sequence (looked up): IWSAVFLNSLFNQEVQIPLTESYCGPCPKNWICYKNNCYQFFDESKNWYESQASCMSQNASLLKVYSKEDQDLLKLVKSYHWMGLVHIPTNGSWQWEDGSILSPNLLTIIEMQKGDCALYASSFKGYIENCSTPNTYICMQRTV
Description: SPR; after 4 wks 40C in HST pH 6.0.

The target in test [4] is T4, Human CD16a V158 (FcγRIIIa V158) (human, UniProt P08637 17-208, biotinylated).
T4 construct: Bought recombinant receptor; also called hCD16aV; hFcγRIIIa V158
In words: SPR; after 4 wks 40C in HST pH 6.0.

The target in test [5] is T1, Human CLEC12A-His (recombinant, K244 WT). Description: SPR, two-state fit (ka1); control sample.
The target is the same in test [6]. In words: SPR, two-state fit (kd1); after pH 5.0, 40C, 2 wks.

T4 sequence (P08637 17-208 F176V limits assumed): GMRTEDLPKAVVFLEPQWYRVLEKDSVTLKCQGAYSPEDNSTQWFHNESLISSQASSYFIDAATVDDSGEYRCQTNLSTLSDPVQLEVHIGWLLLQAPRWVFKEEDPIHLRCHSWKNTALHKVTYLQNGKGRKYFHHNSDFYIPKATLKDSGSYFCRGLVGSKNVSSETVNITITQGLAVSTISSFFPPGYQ

B1: AB0089 TriNKET (bispecific antibody, human IgG1, kappa)
chain: QLQLQESGPGLVKPSETLSLTCTVSGFSLTNYGLHWIRQPPGKCLEWIGVIWVGGATDYNPSLKSRVTISVDTSKNQFSLKLSSVQAADTAVYYCAKGDYGDTLDYWGQGTLVTVSSGGGGSGGGGSGGGGSGGGGSDIQMTQSPSSLSASVGDRVTITCHASQNINFWLSWYQQKPGKAPKLLIYEASNLHTGVPSRFSGSGSGTDFTLTISSLQPEDFATYYCQQSHSYPLTFGCGTKLEIKGSDKTHTCPPCPAPELLGGPSVFLFPPKPKDTLMISRTPEVTCVVVDVSHEDPEVKFNWYVDGVEVHNAKTKPREEQYNSTYRVVSVLTVLHQDWLNGKEYKCKVSNKALPAPIEKTISKAKGQPREPRVYTLPPCRDELTKNQVSLTCLVKGFYPSDIAVEWESNGQPENNYKTTPPVLVSDGSFTLYSKLTVDKSRWQQGNVFSCSVMHEALHNHYTQKSLSLSPG
heavy: EVQLVESGGGLVKPGGSLRLSCAASGFTFSSYSMNWVRQAPGKGLEWVSSISSSSSYIYYADSVKGRFTISRDNAKNSLYLQMNSLRAEDTAVYYCARGAPIGAAAGWFDPWGQGTLVTVSSASTKGPSVFPLAPSSKSTSGGTAALGCLVKDYFPEPVTVSWNSGALTSGVHTFPAVLQSSGLYSLSSVVTVPSSSLGTQTYICNVNHKPSNTKVDKKVEPKSCDKTHTCPPCPAPELLGGPSVFLFPPKPKDTLMISRTPEVTCVVVDVSHEDPEVKFNWYVDGVEVHNAKTKPREEQYNSTYRVVSVLTVLHQDWLNGKEYKCKVSNKALPAPIEKTISKAKGQPREPQVCTLPPSRDELTENQVSLTCLVKGFYPSDIAVEWESNGQPENNYKTTPPVLDSDGSFFLYSWLTVDKSRWQQGNVFSCSVMHEALHNHYTQKSLSLSPG
light: DIQMTQSPSSVSASVGDRVTITCRASQGISSWLAWYQQKPGKAPKLLIYAASSLQSGVPSRFSGSGSGTDFTLTISSLQPEDFATYYCQQGVSFPRTFGGGTKVEIKRTVAAPSVFIFPPSDEQLKSGTASVVCLLNNFYPREAKVQWKVDNALQSGNSQESVTEQDSKDSTYSLSSTLTLSKADYEKHKVYACEVTHQGLSSPVTKSFNRGEC
notes: F3' format heterodimer of three chains; human IgG1 Fc with EW-RVT and Y349C/S354C mutations; also called AB0089 Lot AB0089-002; CLEC12A TriNKET AB0089
Usually koff stands for the rate constant with which the complex falls apart. As a reminder, the Kd is the equilibrium constant for the complex coming apart. Broadly, the kon is the rate constant with which the complex forms. On to B1, for which the koff stood at 0.0398 s⁻¹ in test [1]; 0.00353 s⁻¹ with Human CLEC12A-K244Q-His; 0.132 s⁻¹ in test [3]; 0.0284 s⁻¹ in test [4]; 0.0427 s⁻¹ in test [6]. Further, the results for the Kd in test [2], in test [3] and in test [4] were 0.74 nM, 796 nM and 359 nM, respectively. Also, the results for the kon in test [3], in test [4] and in test [5] were 166000 M⁻¹ s⁻¹, 79300 M⁻¹ s⁻¹ and 8.87e+06 M⁻¹ s⁻¹, respectively.

(Values after patent publication US20220119534A1 (DRAGONFLY THERAPEUTICS, published 2022).)
